The supplement of paper PMC7877785
± gives the uncertainty stated by the source.

Assay: self-splicing fitness, log relative to wild type (ln ratio); higher = more splicing; Tetrahymena group I intron in knt gene, E. coli kanamycin selection, DiMSum; sequences stand for … in CUCUCU…GGAGGGAAAAGUUAUCAGGCAUGCACCUGGUAGCUAGUCUUUAAACCAAUAGAUUGCAUCGGUUUAAAAGGCAAGACCGUCAAAUUGCGGGAAAGGGGUCAACAGCCGUUCAGUACCAAGUCUCAGGGGAAACUUUGAGAUGGCCUUGCAAAGGGUAUGGUAAUAAGCUGACGGACAUGGUCCUAACCACGCAGCCAAGUCCUAAGUCAACAGAUCUUCUGUUGAUAUGGAUGCAGUUCACAGACUAAAUGUCGGUCGGGGAAGAUGUAUUCUUCUCAUAAGAUAUAGUCGGACCUCUCCUUAAUGGGAGCUAGCGGAUGAAGUGAUGCAACACUGGAGCCGCUGGGAACUAAUUUGUAUGCGAAAGUAUAUUGAUUAGUUUUGGAGUACUCGUGGUCG
In short: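 DiMSum derived fitness as the error-weighted combination of fold changes across replicates, kanamycin versus no kanamycin, normalised to wild type. E. coli BL21(DE3) held the library, which randomised all eight P1ex-region intron nucleotides within the knt kanamycin-resistance gene on pET-22b(+). Six replicate transformations grew overnight at 37°C or 30°C on LB agar with or without 25 μg/mL kanamycin, also containing 100 μg/mL carbenicillin, 50 μM IPTG and 0.2% rhamnose, and pooled colonies were amplicon-sequenced on an Illumina HiSeq 2500.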

Sequence	self-splicing fitness (ln) (30 °C)	self-splicing fitness (ln) (37 °C)
ACGGAGCAAUAUUACGCAUC	-2.6 ± 0.17	-2.03 ± 0.21
ACGGAGCAAUAUUACGCCGG	-1.09 ± 0.38	–
ACGGAGCAAUAUUACGCGCG	-2 ± 0.15	-0.429 ± 0.14
ACGGAGCAAUAUUACGCGGC	-3.42 ± 0.44	–
ACGGAGCAAUAUUACGCUCC	–	-1.28 ± 0.37
ACGGAGCAAUAUUACGGAGU	-2.53 ± 0.27	-1.55 ± 0.18
ACGGAGCAAUAUUACGGAUC	-3.09 ± 0.17	-2.79 ± 0.26
ACGGAGCAAUAUUACGGCGC	0.159 ± 0.44	-0.221 ± 0.45
ACGGAGCAAUAUUACGGCUC	-3.6 ± 0.3	-2.87 ± 0.48
ACGGAGCAAUAUUACGGGUU	-3.25 ± 0.16	-3.6 ± 0.3
ACGGAGCAAUAUUACGGUAG	–	-2.33 ± 0.31
ACGGAGCAAUAUUACGGUCC	-3.38 ± 0.36	-1.39 ± 0.34
ACGGAGCAAUAUUACGGUUG	-3.93 ± 0.31	-2.22 ± 0.18
ACGGAGCAAUAUUACGUCAG	-3.38 ± 0.19	-1.69 ± 0.18
ACGGAGCAAUAUUACGUCCU	-1.85 ± 0.13	-1.27 ± 0.15
ACGGAGCAAUAUUACGUCGA	-2.03 ± 0.38	-2.07 ± 0.28
ACGGAGCAAUAUUACGUCUA	-3.96 ± 0.46	-1.3 ± 0.16
ACGGAGCAAUAUUACGUCUG	-1.94 ± 0.19	0.013 ± 0.14
ACGGAGCAAUAUUACGUGAC	-2.68 ± 0.28	-2.16 ± 0.42
ACGGAGCAAUAUUACGUUAU	–	-2.94 ± 0.23
ACGUAGCAAUAUUACGAAGA	-2.85 ± 0.41	-0.644 ± 0.16
ACGUAGCAAUAUUACGACGC	-0.35 ± 0.25	-0.563 ± 0.3
ACGUAGCAAUAUUACGAGGG	-3.91 ± 0.26	-2.92 ± 0.26
ACGUAGCAAUAUUACGAGUC	-3.3 ± 0.4	-3.2 ± 0.35

Sequence	self-splicing fitness (ln) (30 °C)	self-splicing fitness (ln) (37 °C)
ACGUAGCAAUAUUACGCCAA	-2.3 ± 0.38	-1.5 ± 0.37
ACGUAGCAAUAUUACGCGUG	-1.73 ± 0.094	-0.962 ± 0.11
ACGUAGCAAUAUUACGCUAG	-2.85 ± 0.12	-0.713 ± 0.13
ACGUAGCAAUAUUACGCUCC	-2.71 ± 0.36	-0.259 ± 0.22
ACGUAGCAAUAUUACGGAGC	-3.42 ± 0.22	-2.39 ± 0.26
ACGUAGCAAUAUUACGGGCA	-0.955 ± 0.099	-0.418 ± 0.12
ACGUAGCAAUAUUACGGGGA	-1.93 ± 0.1	-1.83 ± 0.099
ACGUAGCAAUAUUACGUGAU	-3.19 ± 0.14	-1.63 ± 0.12
ACGUAGCAAUAUUACGUGGC	-2.94 ± 0.17	-2.98 ± 0.26
ACGUAGCAAUAUUACGUUAU	-3.76 ± 0.17	-2.34 ± 0.16
ACGUAGCAAUAUUACGUUCG	-2.69 ± 0.12	-0.757 ± 0.12
ACGUAGCAAUAUUACGUUUC	-4.47 ± 0.25	-2.87 ± 0.19
ACGUAGCAAUAUUACGUUUU	-2.63 ± 0.12	-1.15 ± 0.12
ACUAAGCAAUAUUACGAAAA	-2.26 ± 0.33	-1.72 ± 0.36
ACUAAGCAAUAUUACGAAGC	-3.67 ± 0.21	-3.25 ± 0.22
ACUAAGCAAUAUUACGAAGG	-1.51 ± 0.087	-0.966 ± 0.12
ACUAAGCAAUAUUACGACAG	-0.663 ± 0.085	-0.322 ± 0.11
ACUAAGCAAUAUUACGACGC	-0.258 ± 0.11	-0.0244 ± 0.12
ACUAAGCAAUAUUACGAGAU	-3 ± 0.15	-2.45 ± 0.2
ACUAAGCAAUAUUACGAGCG	-0.928 ± 0.084	0.115 ± 0.14
ACUAAGCAAUAUUACGAGGC	-3.03 ± 0.23	-2.48 ± 0.25
ACUAAGCAAUAUUACGCAAU	-2.04 ± 0.076	-1.65 ± 0.086
ACUAAGCAAUAUUACGCACG	-1.68 ± 0.1	-0.457 ± 0.13
ACUAAGCAAUAUUACGCGCU	-0.324 ± 0.093	0.362 ± 0.13

Sequence	self-splicing fitness (ln) (30 °C)	self-splicing fitness (ln) (37 °C)
ACUAAGCAAUAUUACGCGGU	-2.65 ± 0.14	-2.59 ± 0.21
ACUAAGCAAUAUUACGCUAC	-3.94 ± 0.23	-1.08 ± 0.18
ACUAAGCAAUAUUACGCUAU	-1.88 ± 0.072	-1.84 ± 0.1
ACUAAGCAAUAUUACGGAAU	-1.97 ± 0.1	-2.04 ± 0.16
ACUAAGCAAUAUUACGGAUA	-2.38 ± 0.16	-2.54 ± 0.2
ACUAAGCAAUAUUACGGAUU	-2.79 ± 0.14	-1.1 ± 0.11
ACUAAGCAAUAUUACGGGCC	-2.88 ± 0.2	-1.73 ± 0.21
ACUAAGCAAUAUUACGGUGU	-3.49 ± 0.15	-2.23 ± 0.12
ACUAAGCAAUAUUACGUAAU	-1.14 ± 0.073	-0.739 ± 0.09
ACUAAGCAAUAUUACGUAUU	-2.09 ± 0.082	-1.9 ± 0.11
ACUAAGCAAUAUUACGUGCC	-1.22 ± 0.13	-0.754 ± 0.14
ACUAAGCAAUAUUACGUUAA	-2.77 ± 0.14	-2.7 ± 0.18
ACUCAGCAAUAUUACGAAGG	-0.983 ± 0.1	-1.19 ± 0.14
ACUCAGCAAUAUUACGACGG	-0.71 ± 0.072	0.0441 ± 0.12
ACUCAGCAAUAUUACGAGUA	-2.23 ± 0.12	-1.1 ± 0.1
ACUCAGCAAUAUUACGAGUG	-1.59 ± 0.081	-0.296 ± 0.11
ACUCAGCAAUAUUACGCAAG	-1.89 ± 0.11	-0.159 ± 0.087
ACUCAGCAAUAUUACGCAGA	-3.11 ± 0.2	-2.55 ± 0.22
ACUCAGCAAUAUUACGCCAU	-3.02 ± 0.17	-2.28 ± 0.16
ACUCAGCAAUAUUACGCCGA	-3.36 ± 0.39	-2.3 ± 0.28
ACUCAGCAAUAUUACGCGAU	-3.34 ± 0.16	-2.18 ± 0.2
ACUCAGCAAUAUUACGCGUU	-1.91 ± 0.055	-1.18 ± 0.072
ACUCAGCAAUAUUACGGAAA	-1.61 ± 0.14	-1.5 ± 0.16
ACUCAGCAAUAUUACGGCAU	-0.665 ± 0.063	-0.293 ± 0.067

Sequence	self-splicing fitness (ln) (30 °C)	self-splicing fitness (ln) (37 °C)
ACUCAGCAAUAUUACGGCUC	-0.59 ± 0.09	-0.761 ± 0.12
ACUCAGCAAUAUUACGGGCG	-0.574 ± 0.044	0.27 ± 0.062
ACUCAGCAAUAUUACGGUAU	-1.67 ± 0.057	-0.522 ± 0.093
ACUCAGCAAUAUUACGUCUC	-1.8 ± 0.072	-0.51 ± 0.083
ACUCAGCAAUAUUACGUGUA	-1.39 ± 0.1	-0.266 ± 0.096
ACUCAGCAAUAUUACGUUAA	-2.35 ± 0.13	-1.41 ± 0.12
ACUCAGCAAUAUUACGUUCA	-1.36 ± 0.085	-0.842 ± 0.11
ACUCAGCAAUAUUACGUUCC	-2.15 ± 0.22	-0.606 ± 0.2
ACUCAGCAAUAUUACGUUCG	-0.678 ± 0.086	-0.331 ± 0.11
ACUCAGCAAUAUUACGUUGA	-2.37 ± 0.15	-0.607 ± 0.14
ACUGAGCAAUAUUACGAACA	-3.84 ± 0.47	-2.59 ± 0.48
ACUGAGCAAUAUUACGAAUG	-3.69 ± 0.4	-1.89 ± 0.22
ACUGAGCAAUAUUACGACAC	-3.62 ± 0.2	-2.07 ± 0.24
ACUGAGCAAUAUUACGACCG	-1.3 ± 0.17	-0.981 ± 0.23
ACUGAGCAAUAUUACGACGC	0.0713 ± 0.15	0.648 ± 0.2
ACUGAGCAAUAUUACGAGAG	-3.31 ± 0.18	-3.34 ± 0.32
ACUGAGCAAUAUUACGAGCA	-2.63 ± 0.27	-1.42 ± 0.19
ACUGAGCAAUAUUACGAGUC	-3.18 ± 0.23	-3.2 ± 0.28
ACUGAGCAAUAUUACGAUAA	-2.94 ± 0.26	-2.75 ± 0.32
ACUGAGCAAUAUUACGAUAU	-4.44 ± 0.36	-2.8 ± 0.2
ACUGAGCAAUAUUACGCACA	-2.37 ± 0.4	-2.15 ± 0.29
ACUGAGCAAUAUUACGCAGA	-2.38 ± 0.14	-1.25 ± 0.1
ACUGAGCAAUAUUACGCCAG	-2.93 ± 0.49	-2.78 ± 0.47
ACUGAGCAAUAUUACGCCCA	-2.64 ± 0.43	-2.15 ± 0.28
